Reference: patent publication US20060134087A1, “ITI-D1 Kunitz domain mutants as hNE inhibitors” (Dyax Corp., priority 1988, published 2006)
Where “and” joins values, the source holds several entries; their conditions need not be identical. Equal values may be shown once.

Biological target: T1, agarose-immobilized hNE beads (Homo sapiens, UniProt P08246)
T1 sequence (P08246 30-267): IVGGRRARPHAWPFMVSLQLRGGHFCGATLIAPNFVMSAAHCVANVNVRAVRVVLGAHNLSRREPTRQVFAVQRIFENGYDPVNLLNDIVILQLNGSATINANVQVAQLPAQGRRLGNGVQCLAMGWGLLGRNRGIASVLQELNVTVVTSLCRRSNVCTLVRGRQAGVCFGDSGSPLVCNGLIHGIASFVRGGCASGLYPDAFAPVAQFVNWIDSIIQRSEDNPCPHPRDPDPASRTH
Assay: pH fractionation of display phage on agarose-immobilized hNE beads
Assay type: binding
Parameters: Fraction of Input recovered at pH7.0: scale not given here
Settings: for Recovery Total: total fraction of input; for fraction of input: abbreviated fractionation
Description: For the purpose of simultaneously assessing the affinity of a large number of different BPTI and ITI-D1 muteins, DNA sequences encoding the BPTI or ITI-D1 was incorporated into the genome of the bacteriophage M13. […] Alterations in the KuDom amino acid sequence were introduced. Each pure population of phage displaying a particular KuDom was characterized with regard to its interactions with immobilized hNE or hCG. Based on comparison to the pH elution profiles of phage displaying other KuDoms of known affinities for the particular protease, mutant KuDoms having high affinity for the target proteases were identified. Subsequently, the sequences of these mutant KuDoms were determined (typically by sequencing the corresponding DNA sequence).
To test if phage displaying the ITI-D1::III fusion protein interact strongly with the proteases human neutrophil elastase (hNE), aliquots of display phage were incubated with agarose-immobilized hNE beads (“hNE beads”). The beads were washed and bound phage eluted by pH fractionation as described in U.S. Pat. No. 5,223,409. The pHs used in the step gradient were 7.0, 6.0, 5.5, 5.0, 4.5, 4.0, 3.5, 3.0, 2.5, and 2.0. Following elution and neutralization, the various input, wash, and pH elution fractions were titered. Phage displaying ITI-D1 were compared to phage that display EpiNE-7.
To test if ITI-D1E7-display phage bind hNE beads, pH elution profiles were measured. Aliquots of EpiNE-7, MA-ITI-D1, and MA-ITI-D1E7 display phage were incubated with hNE beads for three hours at room temperature (RT). The beads were washed and phage were eluted as described in U.S. Pat. No. 5,223,409, except that only three pH elutions were performed. […] The pH elution profile of EpiNE-7 display phage is as described. MA-ITI-D1E7 phage show a broad elution maximum around pH 5. The total fraction of MA-ITI-D1E7 phage obtained on pH elution from hNE beads was about 40-fold less than that obtained using EpiNE-7 display phage.
We characterized the binding properties to hNE-beads of MA-BITI and MA-BITI-E7 display phage using the extended pH fractionation procedure described in U.S. Pat. No. 5,223,409.
The binding capacity of hNE-beads for display phage varies among preparations of beads and with age for each individual preparation of beads. Thus, it is difficult to directly compare absolute yields of phage from elutions performed at different times. For example, the fraction of MA-EpiNE7 display phage recovered from hNE-beads varies two-fold among the experiments shown in Tables 14, 16, and 17. However, the shapes of the pH elution profiles are similar. It is possible to correct somewhat for variations in binding capacity of hNE-beads by normalizing display phage yields to the total yield of MA-EpiNE7 phage recovered from the beads in a concurrent elution. When the data shown in Tables 14, 16, and 17 are so normalized, the recoveries of display phage, relative to recovered MA-EpiNE7, are shown in Table 3.
ITI-D1 derivative BITI-E7-1222 is BITI-E7 with the alteration A11T. ITI-D1 derivative BITI-E7-141 is BITI-E7 with the alterations E31Q and Q34V; phage that display the presence of these proteins are MA-BITI-E7-1222 and MA-BITI-E7-141. We determined the binding properties to hNE-beads of MA-BITI-E7-1222 and MA-BITI-E7-141 display phage using the extended pH fractionation protocol described previously. The results are in Tables 18 (for MA-BITI-E7 and MA-BITI-E7-1222) and 19 (for MA-EpiNE7 and MA-BITI-E7-141). The pH elution profiles for the MA-BITI-E7 and MA-BITI-E7-1222 phage are almost identical.
Total pfu applied to the beads are in column two. The fractions of this input pfu recovered in each pH fraction of the abbreviated pH elution protocol (pH 7.0, pH 3.5, and pH 2.0) are in the next three columns. […]

[1] = EE extended pH elution protocol
[2] = EE, sum of pH 3.0, 2.5, 2.0 samples
[3] = EE, sum of pH 6.0 to pH 3.5 samples
[4] = relative to parental MA-BITI-E7-141
[5] = AE abbreviated pH elution protocol
[6] = SUM of all pH elution fractions
[7] = extended protocol, final TBS-TWEEN wash
[8] = extended protocol, pH 3.0 fraction
[9] = extended protocol, pH 4.0 fraction
[10] = extended protocol, pH 4.5 fraction
[11] = extended protocol, pH 5.0 fraction
[12] = extended protocol, pH 5.5 fraction
[13] = extended protocol, pH 7.0 fraction

For “AMINO1: ITI-D1 derivative carrying K1-E2, SEQ ID NO 022 (KEDFCQLGYSAGPCVAMFPRYFYNGTSMACETFQYGGCMGNGNNFVTEKDCLQTCRGA; AMINO1)”, the “Fraction of Input recovered at pH7.0” value [1] was 0.24, the “Fraction of Input recovered at pH2.0” value [2] was 0.35 ×10^−4 and the “Fraction of Input recovered at pH3.5” value [3] was 2.3 ×10^−4. The “Recovery Total” value (EE) was 2.9 ×10^−4 and the “reduction of display phage binding to hNE-beads” value [4] was “at least ten fold”.

For “AMINO2: ITI-D1 derivative carrying K1-S4, SEQ ID NO 023 (KPDSCQLGYSAGPCVAMFPRYFYNGTSMACETFQYGGCMGNGNNFVTEKDCLQTCRGA; AMINO2)”, the “Fraction of Input recovered at pH2.0” value [5] was 0.45 ×10^−4, the “Fraction of Input recovered at pH3.5” value [5] was 2.1 ×10^−4 and the “Fraction of Input recovered at pH7.0” value [5] was 0.57. The “Recovery Total” value (AE) was 3.1 ×10^−4 and the “reduction of display phage binding to hNE-beads” value [4] was “at least ten fold”.

In the case of “BITI-E7-141: BITI-E7 with the alterations E31Q and Q34V; SEQ ID NO 017 (RPDFCQLGYSAGPCVAMFPRYFYNGTSMACQTFVYGGCMGNGNNFVTEKDCLQTCRGA; BITI-E7-141)”, the “fold greater affinity for hNE than BITI-E7” value is reported as “approximately 100 fold”, the “Fraction of Input recovered at pH2.0” value [5] is reported as 5.4 ×10^−4 and the “Fraction of Input recovered at pH3.5” value [5] is reported as 18.0 ×10^−4. For the same substance, the “Fraction of Input recovered at pH7.0” value [5] was 2.2, the “Recovery Total” value (AE) was 26.0 ×10^−4 and the “Fraction of Input recovered at pH7.0” value [1] was 2.1. For the same substance, the “Fraction of Input recovered at pH2.0” value [2] was 3.2 ×10^−4, the “Fraction of Input recovered at pH3.5” value [3] was 21. ×10^−4 and the “Recovery Total” value (EE) was 26.0 ×10^−4. The “Fraction of Input bound” value (range of the affinity class) was >0.1% and the “pH Elution Maximum” value (range of the affinity class) was “≦4.0 pH”.

With “BITI-E7-1222: BITI-E7 with the alteration A11T; SEQ ID NO 143 (RPDFCQLGYSTGPCVAMFPRYFYNGTSMACETFQYGGCMGNGNNFVTEKDCLQTCRGA; BITI-E7-1222)” the “Fraction of Input recovered at pH7.0” value [1] was 0.72, the “Fraction of Input recovered at pH2.0” value [2] was 0.64 ×10^−4 and the “Fraction of Input recovered at pH3.5” value [3] was 4.0 ×10^−4. For the same substance, the “Recovery Total” value (EE) was 5.4 ×10^−4.

For “BITI-E7: ITI-D1E7 with K1R, E2P and S4F; SEQ ID NO 142 (RPDFCQLGYSAGPCVAMFPRYFYNGTSMACETFQYGGCMGNGNNFVTEKDCLQTCRGA; BITI-E7)”, the “fold greater affinity for hNE than ITI-D1E7” value was “ten-fold”.

In the case of “EpiNE7: BPTI-derived Kunitz domain, SEQ ID NO 009; in Tables 14-16 the phage displaying it”, the “fold greater affinity for hNE than ITI-D1E7” value is reported as “roughly 1000 fold”, the “Fraction of Input recovered at pH7.0” value [1] is reported as 0.44 and the “Fraction of Input recovered at pH2.0” value [2] is reported as 2.2 ×10^−4. The “Fraction of Input recovered at pH3.5” value [3] was 6.4 ×10^−4, the “Recovery Total” value (EE) was 9.0 ×10^−4 and the pfu [6] was 6.4 · 10^6 pfu and 7.6 · 10^6 pfu. For the same substance, the “pfu/INPUT (fraction of input)” value [6] was 3 · 10^−3 and 4.1 · 10^−3, the fraction of input [6] was 4.3 · 10^−3 and the fraction of input (Wash) was 6 · 10^−5. The fraction of input (pH 2.0) was 1 · 10^−3, the fraction of input (pH 3.5) was 3 · 10^−3 and the fraction of input (pH 7.0) was 3 · 10^−4. For the same substance, the “total fraction of input phage eluted from hNE beads” value (all pH elution fractions) was “About 0.3%”, the pH Elution Maximum (display phage on hNE beads) was ~4.0 pH and the pfu [7] was 3.8 · 10^5 pfu. The “pfu/INPUT (fraction of input)” value [7] was 1.2 · 10^−4, the pfu (extended protocol, pH 2.0 fraction) was 3.0 · 10^5 pfu and 2.9 · 10^5 pfu and the pfu (extended protocol, pH 2.5 fraction) was 1.6 · 10^5 pfu and 2.8 · 10^5 pfu. For the same substance, the pfu [8] was 6.6 · 10^5 pfu and 3.8 · 10^5 pfu, the “pfu/INPUT (fraction of input)” value [8] was 2.0 · 10^−4 and 2.1 · 10^−4 and the pfu [9] was 1.6 · 10^6 pfu and 1.7 · 10^6 pfu. The “pfu/INPUT (fraction of input)” value [9] was 4.8 · 10^−4 and 9.4 · 10^−4, the pfu [10] was 1.2 · 10^6 pfu and 1.1 · 10^6 pfu and the “pfu/INPUT (fraction of input)” value [10] was 3.5 · 10^−4 and 6.1 · 10^−4. For the same substance, the pfu [11] was 9.5 · 10^5 pfu and 8.4 · 10^5 pfu, the “pfu/INPUT (fraction of input)” value [11] was 2.9 · 10^−4 and 4.7 · 10^−4 and the pfu [12] was 9.4 · 10^5 pfu and 7.8 · 10^5 pfu. For the same substance, the “pfu/INPUT (fraction of input)” value [12] was 2.8 · 10^−4 and 4.3 · 10^−4, the “pfu/INPUT (fraction of input)” value (extended protocol, pH 6.0 fraction) was 4.1 · 10^−4 and 3.6 · 10^−4 and the pfu [13] was 6.2 · 10^5 pfu and 5.2 · 10^5 pfu. For the same substance, the “pfu/INPUT (fraction of input)” value [13] was 1.8 · 10^−4 and 2.9 · 10^−4.

With “ITI-D1E7: ITI-D1 with EpiNE-7 sequence at positions 15-20, SEQ ID NO 021 (KEDSCQLGYSAGPCVAMFPRYFYNGTSMACETFQYGGCMGNGNNFVTEKDCLQTCRGA; ITI-D1E7)” the “estimated affinity of free protein for hNE” value (estimated from pH elution profile of display phage) was “in the nM range”.

“MUT1619: BITI-E7-141 with ITI-D1 residues restored at 16 and 19; SEQ ID NO 020 (RPDFCQLGYSAGPCVGMFSRYFYNGTSMACQTFVYGGCMGNGNNFVTEKDCLQTCRGA; MUT1619)” was tested, and the “Fraction of Input recovered at pH7.0” value [1] was 0.82, the “Fraction of Input recovered at pH2.0” value [2] was 0.84 ×10^−4 and the “Fraction of Input recovered at pH3.5” value [3] was 9.9 ×10^−4. The “Recovery Total” value (EE) was 12.0 ×10^−4, the “Fraction of Input bound” value (range of the affinity class) was >0.1% and the “pH Elution Maximum” value (range of the affinity class) was “≦4.0 pH”.

For “MUTP1: ITI-D1 derivative asserting I15, G16, S19; SEQ ID NO 024 (RPDFCQLGYSAGPCIGMFSRYFYNGTSMACETFQYGGCMGNGNNFVTEKDCLQTCRGA; MUTP1)”, the “Fraction of Input recovered at pH2.0” value [5] was 1.2 ×10^−4, the “Fraction of Input recovered at pH3.5” value [5] was 9.2 ×10^−4 and the “Fraction of Input recovered at pH7.0” value [5] was 1.8. For the same substance, the “Recovery Total” value (AE) was 12.0 ×10^−4.

With “MUTQE: BITI-E7-141 with Q31E; SEQ ID NO 019 (RPDFCQLGYSAGPCVAMFPRYFYNGTSMACETFVYGGCMGNGNNFVTEKDCLQTCRGA; MUTQE)” the “Fraction of Input recovered at pH2.0” value [5] was 5.3 ×10^−4, the “Fraction of Input recovered at pH3.5” value [5] was 16. ×10^−4 and the “Fraction of Input recovered at pH7.0” value [5] was 1.2. The “Recovery Total” value (AE) was 22.0 ×10^−4, the “Fraction of Input bound” value (range of the affinity class) was >0.1% and the “pH Elution Maximum” value (range of the affinity class) was “≦4.0 pH”. For the same substance, the “effect of change on binding of display phage to hNE-beads” value [4] was “little effect”.
